# Read-outs that look alike come from different tables or passages of the source.
# What was measured:
# [1] = molecular target: Tva fused with HA tag and the human IgG-Fc fragment (pCAGGS-Tva-HA-Fc)
# [2] = molecular target: Tva fused with HA tag and the human IgG-Fc fragment (pCAGGS-Tva-HA-Fc); remark: listed apart in the source
# [3] = molecular target: Tva fused with HA tag and the human IgG-Fc fragment (pCAGGS-Tva-HA-Fc); assay: co-IP with grey value analysis; details: parent: est. 1.0; read off a plot
# [4] = molecular target: Tva fused with HA tag and the human IgG-Fc fragment (pCAGGS-Tva-HA-Fc); remark: listed apart in the source
Substance,competitive blocking test: percent GFP-positive DF-1 cells after incubation with the concentrated soluble gp85 and infection with RCASBP(A)-EGFP [1],ratio to parent [3],other results
ALV-A gp85 G324P (domain or fragment),5.5%,–,–
ALV-A gp85 I326T (domain or fragment),4.5%,–,–
"soluble recombinant chimeric protein gp85 s8 (ALV-A gp85 with segment s8, residues 269-275, replaced by that of ALV-K) (domain or fragment)",–,–,competitive blocking test: percent GFP-positive DF-1 cells after incubation with the concentrated soluble gp85 and infection with RCASBP(A)-EGFP [2]: 11%
soluble recombinant ALV-A gp85 328_329insP (domain or fragment),12.5%,–,–
"ALV-A gp85 wt (soluble gp85 of ALV-A RSA, pCAGGS-s-gp85-flag) N269del",–,0.91,–
recombinant ALV-A gp85 R274V (domain or fragment),–,–,competitive blocking test: percent GFP-positive DF-1 cells after incubation with the concentrated soluble gp85 and infection with RCASBP(A)-EGFP [4]: 9.5%
"ALV-A gp85 wt (soluble gp85 of ALV-A RSA, pCAGGS-s-gp85-flag) 328_329insP",–,0.71,–
"ALV-A gp85 wt (soluble gp85 of ALV-A RSA, pCAGGS-s-gp85-flag) A270del",–,0.93,–

# Reference: paper PMC9400301
